Results taken from paper PMC10288911 (2023).

Tests used:
[1] = molecular target: 6×His-tag cleaved FcRn/β2m (UniProt P55899 24-365; P61769 21-119); assay: BLI; pH 7.4; IgG immobilised
[2] = molecular target: 6×His-tagged FcRn/β2m (UniProt P55899 24-365; P61769 21-119); assay: BLI; pH 7.4; FcRn immobilised
[3] = molecular target: FcRn/β2m heterodimers (SPR analyte) (UniProt P55899 24-365; P61769 21-119); assay: SPR; pH 7.4; IgG captured by gp120
Sequence of FcRn/β2m heterodimers (SPR analyte) (P55899 24-365, chain 1 of 2): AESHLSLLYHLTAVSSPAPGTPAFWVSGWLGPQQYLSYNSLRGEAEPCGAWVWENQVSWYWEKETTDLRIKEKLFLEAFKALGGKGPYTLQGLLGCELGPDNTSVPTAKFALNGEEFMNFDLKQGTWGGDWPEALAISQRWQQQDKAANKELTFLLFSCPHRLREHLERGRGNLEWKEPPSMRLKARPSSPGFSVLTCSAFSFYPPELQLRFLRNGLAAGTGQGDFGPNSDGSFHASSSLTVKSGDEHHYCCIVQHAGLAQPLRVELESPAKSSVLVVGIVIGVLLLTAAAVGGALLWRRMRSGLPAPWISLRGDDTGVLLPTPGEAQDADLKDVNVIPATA
Sequence of FcRn/β2m heterodimers (SPR analyte) (P61769 21-119, chain 2 of 2): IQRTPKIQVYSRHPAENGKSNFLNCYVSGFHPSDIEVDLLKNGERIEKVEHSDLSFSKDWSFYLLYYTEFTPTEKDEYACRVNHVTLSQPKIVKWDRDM

Sequence of 6×His-tag cleaved FcRn/β2m (P55899 24-365, chain 1 of 2): as the sequence (P55899 24-365, chain 1 of 2) above
Sequence of 6×His-tag cleaved FcRn/β2m (P61769 21-119, chain 2 of 2): as the sequence (P61769 21-119, chain 2 of 2) above
Sequence of 6×His-tagged FcRn/β2m (P55899 24-365, chain 1 of 2): as the sequence (P55899 24-365, chain 1 of 2) above
Sequence of 6×His-tagged FcRn/β2m (P61769 21-119, chain 2 of 2): as the sequence (P61769 21-119, chain 2 of 2) above

Row | Binder | Kd [1] | Kd [2] | Kd [3]
1 | VRC07-523LS.v1 (antibody) chain 1: QVRLSQSGGQMKKPGDSMRISCRASGYEFINCPINWIRLAPGKRPEWMGWMKPRFGAVSYARQLQGRVTMTRQLSQDPDDPDWGTAFLELRSLTSDDTAVYFCTRGKYCTARDYYNWDFEHWGQGTPVTVSS chain 2: LTQSPGTLSLSPGETAIISCRTSQYGSLAWYQQRPGQAPRLVIYSGSTRAAGIPDRFSGSRWGPDYNLTISNLESGDFGVYYCQQYEFFGQGTKVQVD | 180 nM | 930 nM | 10000 nM
2 | VRC07-523LS.v37 (antibody) chain 1: QVRLSQSGGQMKKPGDSMRISCQASGYEFINCPINWIRLAPGKRPEWMGWMKPRFGAVSYARQLQGRVTMTRQLSQDPDDPDWGTAFLELRSLTSDDTAVYFCTRGQYCTARDYYNWDFEHWGQGTPVTVSS chain 2: LTQSPGTLSLSPGETAIISCETSQYGSLAWYQQRPGQAPRLVIYSGSTRAAGIPDRFSGSRWGPDYNLTISNLESGDFGVYYCQQYEFFGQGTKVQVD | 180 nM | 5400 nM | 9600 nM
3 | VRC07-523LS.v23 (antibody) chain 1: QVRLSQSGGQMKKPGDSMRISCRASGYEFINCPINWIRLAPGKRPEWMGWMKPRFGAVSYARQLQGRVTMTRQLSQDPDDPDWGTAFLELRSLTSDDTAVYFCTRGKYCTARDYYNWDFEHWGQGTPVTVSS chain 2: LTQSPGTLSLSPGETAIISCSTSQYGSLAWYQQRPGQAPRLVIYSGSTRAAGIPDRFSGSRWGPDYNLTISNLESGDFGVYYCQQYEFFGQGTKVQVD | 170 nM | 1600 nM | 3800 nM
4 | VRC07-523LS.v34 (antibody) chain 1: QVRLSQSGGQMKKPGDSMRISCSASGYEFINCPINWIRLAPGKRPEWMGWMKPRFGAVSYARQLQGRVTMTRQLSQDPDDPDWGTAFLELRSLTSDDTAVYFCTRGSYCTARDYYNWDFEHWGQGTPVTVSS chain 2: LTQSPGTLSLSPGETAIISCETSQYGSLAWYQQRPGQAPRLVIYSGSTRAAGIPDRFSGSRWGPDYNLTISNLESGDFGVYYCQQYEFFGQGTKVQVD | 170 nM | 6000 nM | 6300 nM
